Two substances from article PMC4201148 can be followed below.

The target in assay [1] is YFPn-SpvC (Salmonella enterica subsp. enterica serovar Typhimurium strain 14028s) (UniProt P0A2M9). The assay can be described thus: split reporter (BiFC, NanoBiT); BiFC with YFPn and YFPc fusions co-expressed in Arabidopsis epidermal cells by particle bombardment together with p35S-mCherry; fluorescence observed 24-48 h after transformation by confocal microscopy; YFP-positive cells counted among mCherry-positive cells.

In assay [2] the target is YFPc-SpvC (Salmonella enterica subsp. enterica serovar Typhimurium strain 14028s) (UniProt P0A2M9). The assay is described as above.

Regarding “YFPc-MPK6 (from UniProt Q39026 1-395) (transformed cells)”, in assay [1], the percent of transformed cells with reconstituted YFP worked out at 34%.

YFPn-MPK6 (from UniProt Q39026 1-395) came in with a percent of transformed cells with reconstituted YFP in assay [2] of 18%.
